Residue numbers refer to the chain shown, from its start.
T1: soluble human CD73 (Homo sapiens, UniProt P21589)
T1 construct: The ectodomain of CD73 (aa 27-549) was expressed as a recombinant protein with a C-terminal His6× tag; His6 (C); made in house; host or cells: transiently transfected HEK cells
T1 sequence (P21589 27-549): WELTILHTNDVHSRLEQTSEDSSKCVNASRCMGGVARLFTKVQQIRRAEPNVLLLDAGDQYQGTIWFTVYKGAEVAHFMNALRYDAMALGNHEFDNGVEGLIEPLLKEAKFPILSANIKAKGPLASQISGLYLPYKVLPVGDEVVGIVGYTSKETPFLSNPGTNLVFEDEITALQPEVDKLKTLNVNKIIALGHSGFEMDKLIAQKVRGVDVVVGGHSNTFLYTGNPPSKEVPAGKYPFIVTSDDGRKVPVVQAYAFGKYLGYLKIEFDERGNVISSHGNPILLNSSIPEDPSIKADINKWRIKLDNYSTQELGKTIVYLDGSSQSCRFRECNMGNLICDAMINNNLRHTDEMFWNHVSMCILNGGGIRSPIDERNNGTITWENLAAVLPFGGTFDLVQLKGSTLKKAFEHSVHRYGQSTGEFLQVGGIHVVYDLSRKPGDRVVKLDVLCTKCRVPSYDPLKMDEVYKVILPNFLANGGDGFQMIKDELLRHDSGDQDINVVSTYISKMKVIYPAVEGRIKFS

T2: recombinant human CD73 ectodomain (aa 27-549) with C-terminal His6x tag (human, UniProt P21589 27-549)
T2 construct: also called soluble recombinant human CD73; soluble human CD73
T2 sequence: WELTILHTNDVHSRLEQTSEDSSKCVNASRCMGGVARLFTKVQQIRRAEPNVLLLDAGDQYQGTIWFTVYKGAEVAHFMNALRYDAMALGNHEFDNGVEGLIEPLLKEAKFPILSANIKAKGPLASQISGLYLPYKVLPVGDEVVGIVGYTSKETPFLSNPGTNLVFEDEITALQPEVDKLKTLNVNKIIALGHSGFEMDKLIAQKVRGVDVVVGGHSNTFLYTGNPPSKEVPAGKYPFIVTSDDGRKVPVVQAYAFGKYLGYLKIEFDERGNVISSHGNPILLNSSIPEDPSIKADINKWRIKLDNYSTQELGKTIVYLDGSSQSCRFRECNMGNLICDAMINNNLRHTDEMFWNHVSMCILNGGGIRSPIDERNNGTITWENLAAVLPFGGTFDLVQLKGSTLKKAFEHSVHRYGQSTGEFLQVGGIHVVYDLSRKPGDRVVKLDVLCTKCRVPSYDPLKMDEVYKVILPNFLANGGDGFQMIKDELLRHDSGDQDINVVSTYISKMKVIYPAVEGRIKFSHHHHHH

B1: SB124: CD73-specific alpaca VHH clone, family 1, SEQ ID NO:65; tested as rabbit IgG hcAb (antibody)
heavy: QVQLQESGGGLVQPGGSLRLSCAASGFTLDYYTIGWFRQAPGKEREGVSCVSSSGDRTDYLESVKGRLTISRDNAKNTVYLQMNSLKPEDTGVYYCAAQKYYYCSGKVEVYDYWGQGTQVTVSS
modifications: left off: a dimerising Fc or GST
notes: tested as rabbit IgG hcAb
B2: SB125: CD73-specific alpaca VHH clone, family 1, SEQ ID NO:68; tested as rabbit IgG hcAb (antibody)
heavy: QVQLQESGGGLVQPGGSLRLSCAVSGFALDYYTIGWFRQAPGKEREGVSCISSSGGSTNYADSVKGRLTISRDNAKNTVYLQMNSLKPEDTAVYYCAAQRYYYCSDKVEVYDYWGQGTQVTVSS
modifications: left off: a dimerising Fc or GST
notes: tested as rabbit IgG hcAb
B3: SB108: CD73-specific alpaca VHH clone, family 1, SEQ ID NO:67; tested as rabbit IgG hcAb (antibody)
heavy: B2 heavy with Q3K, Q13H, P14S, G56S, V64M, E109A
modifications: left off: a dimerising Fc or GST
notes: tested as rabbit IgG hcAb
B4: SB98: CD73-specific alpaca VHH clone, family 1, SEQ ID NO:62; tested as rabbit IgG hcAb (antibody)
heavy: B2 heavy with Q3K, V24A, A28T, S57I, R100K, D106G, V108A
modifications: left off: a dimerising Fc or GST
notes: tested as rabbit IgG hcAb
B5: SB115: CD73-specific alpaca VHH clone, family 1, SEQ ID NO:63; tested as rabbit IgG hcAb (antibody)
heavy: DVQLQASGGGLVQPGGSLRLSCVVSGFTLDYYTIGWFRQAPGKEREGVSCINSSGGVTNYADSVKGRFTISRDNAKNTVYLQMNSLKSEDTAVYYCAAQKYYYCSRKGEVYDSWGQGTQVTVSS
modifications: left off: a dimerising Fc or GST
notes: tested as rabbit IgG hcAb
B6: SB123: CD73-specific alpaca VHH clone, family 1, SEQ ID NO:64; tested as rabbit IgG hcAb (antibody)
heavy: DVQLQESGGGLVQPGGSLTLSCAASGFTLDYLSIGWFRQVPGKEREGVSCINSSGGSTNYADSVKGRLTISRDNAKNTVYLQINSLKPEDTAVYYCAAHKYYYCSNKVAVFDYWGQGTQVTVSS
modifications: left off: a dimerising Fc or GST
notes: tested as rabbit IgG hcAb
B7: SB107: CD73-specific alpaca VHH clone, family 1, SEQ ID NO:66; tested as rabbit IgG hcAb (antibody)
heavy: QVQLQESGGGLVQPGGSLRLSCAASGFTLDYLTIGWFRQAPGKEREGVSCINSNGGSTIYADSVKGRLTISRDNAKNTVYLQINSLKPDDTAVYFCAAQKYYYCSGRVEVYDYWGQGIQVTVSS
modifications: left off: a dimerising Fc or GST
notes: tested as rabbit IgG hcAb
B8: SB142 rabbit IgG hcAb (Fc fusion)
heavy: QVQLVESGGGLVQPGGSLRLSCAASGFTFINYHMSWLRQAPGKGLEWVSEIHSRGDITSYTNSVKGRFTISRDNAKNTLYLQMNSLKFDDTAVYYCARSRDLFGEGEYDYWGRGTQVTVSS
notes: not shown: hinge and Fc-domains of rabbit IgG
B9: SB125 rabbit IgG hcAb (Fc fusion)
heavy: B2 heavy
notes: as for B8
B10: SB108 rabbit IgG hcAb (Fc fusion)
heavy: B2 heavy with Q3K, Q13H, P14S, G56S, V64M, E109A
notes: as for B8
B11: SB115 rabbit IgG hcAb (Fc fusion)
heavy: B5 heavy
notes: as for B8
B12: SB124 rabbit IgG hcAb (Fc fusion)
heavy: B1 heavy
notes: as for B8
B13: SB98 rabbit IgG hcAb (Fc fusion)
heavy: B2 heavy with Q3K, V24A, A28T, S57I, R100K, D106G, V108A
notes: as for B8
B14: SB123 rabbit IgG hcAb (Fc fusion)
heavy: B6 heavy
notes: as for B8

molecular target: T1, soluble human CD73; assay: Off-rates of soluble CD73 from immobilized Nb-rbIgG hcAb on Octet BLI; type: binding; settings: soluble human CD73 ectodomain 200 ng/μl as analyte; Nb-rbIgG hcAb immobilized on protein A biosensor
Description: (§1) The binding off-rate constants of bivalent hcAbs to human and mouse CD73 protein were determined by […] kinetic analysis on Octet RED96 (ForteBio). Immobilization of rabbit IgG hcAbs on the protein A-biosensor surface was done in HEK-6E cell supernatant, and regeneration of analytes was done with 100 mM Glycin pH=2.5. Recombinant mouse or human CD73 ectodomain was used as analytes and tested at a saturating dose of 200 ng/μl. Sensorgrams were fitted using least square regression in association than dissociation Model in Prism8 (Graphpad).

Row | Kdis | Molecule
1 | 0.0011 s⁻¹ | B1
2 | 0.00058 s⁻¹ | B2
3 | 9.7e-05 s⁻¹ | B3
4 | 0.0018 s⁻¹ | B4
5 | 0.00035 s⁻¹ | B5
6 | 4.3e-05 s⁻¹ | B6

molecular target: T1, soluble human CD73; assay: AMP hydrolysis by soluble CD73, DPEA-Napht-Azide fluorescence assay; type: biochemical; settings: 50 ng CD73, 30 min pre-incubation with 10 μl hcAb supernatant, 1 mM AMP
Description: Recombinant human CD73 (50 ng) was pre-incubated for 30 min with hcAbs at RT in 96 well plates before addition of AMP and DPEA-Napht-Azide. Fluorescence signals were detected every 50 seconds for 30 repeats. ARFU values (>10^3/min) were calculated for a 10 min interval during the linear phase (from 5 min to 15 min) using Prism software (Graphpad). A non-specific rabbit IgG hcAb was used as control.
• 4.1 CD73 catalyzes the hydrolysis of AMP to adenosine. This reaction can be monitored by the shift in fluorescence intensity of DPEA-Napht-Azide. This property was used to determine whether hcAbs could interfere with the enzymatic activity of CD73. Soluble recombinant human CD73 (50 ng) was pre-incubated for 30 min with Nbs or hcAbs (10 μl HEK-6E cell supernatant containing 10-100 μg/ml hcAb) at RT in 96 well plates before addition of AMP (Sigma) to a final concentration of 1 mM and of DPEA-Napht-Azide to a final concentration of 50 μM. • 4.2 Fluorescence signals were recorded in white Nunc MicroWell plates (Nunc, 136101) on a Victor III plate reader (Perkin Elmer) (Exicitation filter: F485, Emission Filter: F535; CW-Lamp energy: 40000, counting time: 0.1 s). Data analyses were performed using Prism (Graphpad).
Soluble recombinant human CD73 (50 ng) was pre-incubated for 30 min with CD73-specific hcAbs or an irrelevant control hcAb (10 μl HEK-6E cell supernatant) at RT in 96 well plates before addition of AMP (Sigma) to a final concentration of 1 mM and of DPEA-Napht-Azide to a final concentration of 50 μM. Fluorescence signals were detected every 50 seconds for 30 repeats. Data analyses were performed using Prism (Graphpad).

Row | Molecule | effect on hydrolysis of AMP by soluble CD73
7 | B7 | inhibited CD73 catalyzed hydrolysis of AMP
8 | B3 | inhibited CD73 catalyzed hydrolysis of AMP
9 | B5 | inhibited CD73 catalyzed hydrolysis of AMP

molecular target: T2, recombinant human CD73 ectodomain (aa …); assay: BLI (Octet), immobilized Nb-rbIgG hcAb, soluble human CD73 as analyte; settings: not given
Description: as §1

Row | koff | Molecule
10 | 0.00036 s⁻¹ | B8
11 | 0.00058 s⁻¹ | B9
12 | 9.7e-05 s⁻¹ | B10
13 | 0.00035 s⁻¹ | B11
14 | 0.0011 s⁻¹ | B12
15 | 0.0018 s⁻¹ | B13
16 | 4.3e-05 s⁻¹ | B14
